One assay concerns the target HLA-B*08:01. Put plainly: IEDB peptide-MHC binding, purified MHC/competitive/radioactivity; filed as Kd, often an IC50 or EC50 that approximates it; ≥ and ≤ were set here for values at or beyond the usual limits of such assays.
For assay [1], the target named is HLA-A*02:01. The description is as above.
For another assay, the target named is HLA-B*35:01. The description is as above.
The next assay deals with HLA-B*51:01. The assay is described as above.
The target in the next assay is HLA-A*02:03. Described as above. The following applies: source organism: Dengue virus 4 Philippines/H241/1956.
The target of a further assay is HLA-A*26:01. The description is as above.
A further assay has as its target HLA-B*53:01. The assay is described as above.
The target of another assay is HLA-A*11:01. Put plainly: IEDB peptide-MHC binding, purified MHC/direct/fluorescence; filed as Kd, often an IC50 or EC50 that approximates it; ≥ and ≤ were set here for values at or beyond the usual limits of such assays. The following applies: source organism: SARS-CoV1.
Another assay addresses HLA-A*69:01. The assay is described as above.
A further assay concerns the target HLA-B*07:02. Described as above.
The target of another assay is HLA-B*15:01. The description is as above.
The next assay has as its target HLA-B*58:01. The assay is described as above.
A further assay concerns the target HLA-B*44:02. Put plainly: IEDB peptide-MHC binding, purified MHC/competitive/radioactivity; filed as Kd, often an IC50 or EC50 that approximates it; ≥ and ≤ were set here for values at or beyond the usual limits of such assays. The note with it: source organism: Dengue virus 3 Martinique/1243/1999.
In assay [2] the target is HLA-A*02:01. Put plainly: IEDB peptide-MHC binding, purified MHC/direct/fluorescence; filed as Kd, often an IC50 or EC50 that approximates it; ≥ and ≤ were set here for values at or beyond the usual limits of such assays.
In the next assay the target is HLA-A*31:01. The assay is described as above. The following applies: source organism: Salmonella enterica subsp. enterica serovar Typhimurium.
In another assay the target is HLA-B*27:05. The description is as above.
The target in a further assay is HLA-A*32:01. Put plainly: IEDB peptide-MHC binding, purified MHC/competitive/radioactivity; filed as Kd, often an IC50 or EC50 that approximates it; ≥ and ≤ were set here for values at or beyond the usual limits of such assays. The note with it: source organism: Dengue virus 4 Philippines/H241/1956.
The next assay addresses HLA-B*40:01. Put plainly: IEDB peptide-MHC binding, purified MHC/direct/fluorescence; filed as Kd, often an IC50 or EC50 that approximates it; ≥ and ≤ were set here for values at or beyond the usual limits of such assays.
A further assay deals with HLA-A*01:01. The description is as above. The note with it: source organism: Giardia lamblia ATCC 50803.
Another assay addresses HLA-A*03:01. The description is as above. The following applies: source organism: Giardia lamblia ATCC 50803.
[3] abbreviates: source organism: Dengue virus 1 Singapore/S275/1990.
Setting [4] is: source organism: Lassa virus Josiah.
Where [5] appears, read: source organism: Dengue virus 4 Philippines/H241/1956.
[6] abbreviates: source organism: Vaccinia virus WR.
The mark [7] stands for this setting: source organism: Dengue virus 1 Brazil/97-11/1997.
The mark [8] stands for this setting: source organism: Dengue virus 2 Jamaica/1409/1983.
[9] abbreviates: source organism: Dengue virus 3 Martinique/1243/1999.
The mark [10] stands for this setting: source organism: Salmonella enterica subsp. enterica serovar Typhimurium.
The mark [11] stands for this setting: source organism: Giardia lamblia ATCC 50803.

Consider RNALDNLAVL, for which the dissociation constant Kd with HLA-B*08:01 (source organism: Dengue virus 2 16681-PDK53) came out at 6430 nM. As to RTNDWDFVV, the Kd with HLA-A*02:01 [1] (source organism: dengue virus type 2) stood at 167 nM. As for LAVSGVYPL, the Kd with HLA-B*35:01 (setting [3]) was 83.2 nM. As for WPLNEGIMAV, the Kd with HLA-B*51:01 (setting [3]) worked out at 304 nM. For the sequence IMKNHLRDI, in the assay with HLA-A*02:01 [1] (setting [4]), the dissociation constant (Kd) worked out at 12500 nM.

Turning to IMVGNETGL, the Kd in the assay with HLA-A*02:01 [1] (setting [4]) is 4170 nM. For LLGCAANWI, the equilibrium dissociation constant (Kd) with HLA-A*02:01 [1] (source organism: Hepatitis B virus subtype ayw) is not below 5000 nM. Turning to GIMAVGLVSL, the Kd was found to be 24.1 nM with HLA-A*02:03 and 1230 nM with HLA-B*08:01 (setting [5]). MLLCHKPTL: in the assay with HLA-B*08:01 (setting [6]), the dissociation constant (Kd) was determined as 18.7 nM. On to MSIPATLFVW, for which the Kd with HLA-A*26:01 (setting [7]) came out at 15600 nM; with HLA-B*53:01 (setting [7]), 414 nM. In the case of SLLMWITQCFL, in the assay with HLA-A*02:01 [1] (source organism: Homo sapiens), the Kd was not below 50000 nM. As for TMYYKDVTV, in the assay with HLA-A*02:01 [1] (source organism: Human alphaherpesvirus 1 strain 17), the Kd turned out to be 25 nM. As to NPKFFKVYL, the equilibrium dissociation constant (Kd) with HLA-B*08:01 (setting [6]) was 190 nM.

Turning to TTLPVNVAF, the Kd was not below 27300 nM in the assay with HLA-A*11:01; 20 nM with HLA-A*69:01 (source organism: SARS-CoV1); 5760 nM in the assay with HLA-B*07:02 (source organism: SARS-CoV1); 1760 nM with HLA-B*15:01 (source organism: SARS-CoV1); 328 nM in the assay with HLA-B*58:01 (source organism: SARS-CoV1). With WALCEALTL, the Kd with HLA-B*35:01 (setting [8]) was found to be 641 nM. For the sequence YTALFSGVSW, the Kd in the assay with HLA-A*26:01 (setting [9]) amounted to 916 nM; with HLA-B*44:02 it was 2070 nM; with HLA-B*53:01 (setting [9]), 18.2 nM. Regarding LPEDIEQMAN, the dissociation constant (Kd) was 883 nM in the assay with HLA-B*35:01 (setting [9]), not below 69600 nM with HLA-B*51:01 (setting [9]) and 2100 nM in the assay with HLA-B*53:01 (setting [9]).

For LAKRFSRGL, in the assay with HLA-B*08:01 (source organism: Dengue virus 3 Singapore/8120/1995), the Kd was found to be 962 nM. On to GMKAFTAAV, for which the dissociation constant (Kd) in the assay with HLA-A*02:01 [2] (setting [10]) was found to be 281 nM; with HLA-A*31:01, 74.8 nM; with HLA-A*69:01 (setting [10]), 3560 nM; with HLA-B*15:01 (setting [10]) it was 59 nM; with HLA-B*27:05 (setting [10]) it was 7260 nM. In the case of MPLVMAWRTI, the Kd with HLA-A*32:01 amounted to 136 nM; with HLA-B*35:01 (setting [5]), 705 nM; with HLA-B*51:01 (setting [5]) it was 61.9 nM; with HLA-B*53:01 (setting [5]), 10.8 nM. Sequence DECEFELAL displayed a dissociation constant (Kd) in the assay with HLA-B*40:01 (source organism: Mycobacterium tuberculosis) of 803 nM. For TPQPMELKY, the Kd in the assay with HLA-B*35:01 (setting [9]) stood at 10.6 nM; with HLA-B*53:01 (setting [9]), 18.4 nM. Turning to ATSGYRIAY, the dissociation constant Kd with HLA-A*01:01 is 68.7 nM; in the assay with HLA-A*02:01 [2] (setting [11]) it was not below 20000 nM; in the assay with HLA-A*03:01, not below 20000 nM; with HLA-B*07:02 (setting [11]), not below 20000 nM; in the assay with HLA-B*15:01 (setting [11]), 45 nM; with HLA-B*27:05 (setting [11]), not below 20000 nM. Besides, the Kd in the assay with HLA-B*58:01 (setting [11]) came out at 1650 nM. As to EPKISLLPL, the Kd in the assay with HLA-B*08:01 (setting [6]) worked out at 8.53 nM. Turning to MYKSRVERV, in the assay with HLA-B*08:01 (setting [6]), the Kd is 46.5 nM. In the case of LPMLYFLYV, the Kd in the assay with HLA-B*08:01 (setting [6]) was 2.51 nM.

GEEFFHQYL returned a Kd in the assay with HLA-B*40:01 (source organism: Mammarenavirus juninense) of 10.2 nM. As to EKIIHFLTI, the Kd with HLA-B*08:01 (setting [6]) stood at 5.04 nM. Regarding MPSMKRFRRE, the values for the Kd with HLA-B*35:01 (setting [8]), in the assay with HLA-B*51:01 (setting [8]) and with HLA-B*53:01 (setting [8]) were not below 30900 nM, not below 69600 nM and not below 20600 nM, respectively. As to EARKTFVEL, the dissociation constant (Kd) with HLA-B*08:01 (setting [7]) was determined as 97.1 nM. With FNKTIFLSE, in the assay with HLA-B*08:01 (setting [6]), the Kd turned out to be 255 nM.

By Kd is commonly meant the constant that tells how readily two partners part at equilibrium.

These data come from the Immune Epitope Database (IEDB).
